Results taken from US20010044939A1, “Small subunit of plant acetolactate synthase” (priority 2000, published 2001).

How the values were obtained:
[1] = system: Nicotiana plumbaginifolia acetolactate synthase (ALS) holoenzyme: N. plumbaginifolia LSU (encoded by pMTDRALS; ALS10 cDNA SEQ ID NO:42, predicted polypeptide …); assay: Inhibition of reconstituted plant ALS holoenzyme by herbicides (acetoin detection, microtiter plate); format: biochemical; conditions: holoenzyme (LSU + GST-SSU, thrombin cleaved); sodium pyruvate started (10 μL of 500 mM per well); pH 7.6; 37° C., 30 min; read-out: I50
Experimental: The plasmid pSSU Bbs/Bam was digested to completion with Bbs I and Xho I and the digestion products were separated by electrophoresis using a […] agarose gel and the 1.35 kbp Bbs I/Xho I fragment was recovered from the gel. Three hundred ng of this DNA was ligated with 1 μg of the plasmid pGEX-2TM that had been digested to completion with BamH I and Xho I and dephosphorylated as described above. The ligation reaction was diluted five fold with H2O and used to transform competent Max Efficiency E. coli DH5α as described above. […] This plasmid was designated pGEX-SSU.
The plasmid ALS10 that contains a full length cDNA copy of the Nicotiana plumbaginifolia ALS gene in the plasmid vector pBluescript was used as the source of the ALS coding region for pMTDRALS. The sequence of this cDNA is shown in SEQ ID NO:42. ALS10 was digested to completion with Xho I and Eco0109I, and the digestion products were separated by agarose gel electrophoresis. […] The plates were incubated overnight at 37° C. and plasmids isolated from kanamycin-resistant bacterial colonies were analyzed for the presence of the insert encoding the ALS large subunit by double digestion with Nde I and Xho I. One such plasmid, designated pMTDRALS was then transformed into E. coli BL21(DE3) using methods known to those skilled in the art. […]

[2] = molecular target: GST-LSU: A. thaliana ALS large subunit expressed as a glutathione-S-transferase fusion protein from plasmid pGEX-OCM2 (Arabidopsis thaliana) (UniProt P17597); assay: cell-based or functional assay
[3] = molecular target: N. plumbaginifolia ALS large subunit from plasmid pMTDRALS (Nicotiana plumbaginifolia); assay: cell-based or functional assay
[4] = molecular target: free Arabidopsis thaliana ALS large subunit released from GST-LSU by thrombin (Arabidopsis thaliana) (UniProt P17597); assay: cell-based or functional assay

Row | Compound | Specific Activity before thrombin addition (units/mg LSU), ALS enzyme assay [2] [units/mg LSU] | Specific Activity after thrombin addition (units/mg LSU), ALS enzyme assay [3] [units/mg LSU] | Specific Activity before thrombin addition (units/mg LSU), ALS enzyme assay [3] [units/mg LSU] | Specific Activity after thrombin addition (units/mg LSU), ALS enzyme assay [4] [units/mg LSU] | IC50 [1] [µM] | other results
1 | CCc1cnc(C2=NC(C)(C(C)C)C(=O)N2)c(C(=O)O)c1 (stereo not shown) [imezethapyr] |  |  |  |  | 4 | 
2 | free N. plumbaginifolia ALS small subunit released from Trx-HIS/SSU by thrombin |  | 6.5 |  | 1.1 |  | fold increase in specific activity (sample 2 against sample 1, after thrombin) [4]: > 20 fold
3 | CC(C)C1(C)N=C(c2nc3ccccc3cc2C(=O)O)NC1=O (stereo not shown) [imazequin] |  |  |  |  | 0.8 | 

More lines, main results first:

Row | Specific Activity before thrombin addition (units/mg LSU), ALS enzyme assay [2] [units/mg LSU] | Specific Activity after thrombin addition (units/mg LSU), ALS enzyme assay [3] [units/mg LSU] | Specific Activity before thrombin addition (units/mg LSU), ALS enzyme assay [3] [units/mg LSU] | Specific Activity after thrombin addition (units/mg LSU), ALS enzyme assay [4] [units/mg LSU] | Compound | IC50 [1] [µM] | other results
4 | 0.3 | 0.4 | 1.1 | 0.04 | bovine serum albumin (from UniProt P02769 25-607) |  | 
5 | 0.9 |  | 5.5 |  | Trx-HIS/SSU: N. plumbaginifolia acetolactate synthase small subunit expressed as a thioredoxin fusion from plasmid pTrx-HIS/SSU (from UniProt P0AA25 1-109) |  | fold increase in specific activity (sample 2 against sample 1, before thrombin) [2]: 3 fold; fold increase in specific activity (sample 4 against sample 3, before thrombin) [3]: 5 fold
